Residues, ends and D or L forms follow the SMILES beside them. No end group written: not given here. *: point of attachment. Biotin = O=C1N[C@H]2[C@H](CS[C@H]2CCCCC(=O)*)N1
Key:
ZO-1 d2 [1] = molecular target: T1, ZO-1 d2 (Homo sapiens, UniProt Q07157, DEL264-264); assay: G3 assay titration, GST-PDZ fusion / biotinylated peptide; type: binding
T1 construct: made in house; host or cells: E. coli (DH5alpha, BL21 or JM109)
T1 sequence (Q07157 with tags, fused parts or gaps DEL264-264): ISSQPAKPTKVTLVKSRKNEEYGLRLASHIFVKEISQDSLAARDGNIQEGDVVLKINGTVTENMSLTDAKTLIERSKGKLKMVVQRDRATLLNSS
Procedure: The G3 assay is identical to the G0 assay with the following exceptions. The peptides are typically present at 0.1 μM rather than 20 μM. The peptides are also pre-incubated with the HRP-streptavidin prior to adding to the assay plate. In the G0 assay, free peptide is incubated with the PDZ proteins prior to the addition of the HRP-streptavidin. Thus, for the G0 assay one can lose signal if the bound peptide dissociates from the PDZ protein prior to the addition of the HRP-streptavidin. In the G3 modified assay the HRP-streptavidin/peptide complex is added to the plate in one step, thus increasing the likelihood that all the bound peptide will be bound to HRP-streptavidin. The G3 modified assay increases the chance of observing weak interactions.
This example describes assays to identify binding between TRPM7 and PDZ domains. GST-PDZ fusions are produced that each contain an entire PDZ domain (or multiple PDZ domains), the collection encompassing approximately 90% of all PDZ domains identified in the human genome. (See Table 5 and Section V (PDZ Proteins and PL Protein Interactions Disclosure). Biotinylated peptide corresponding to 11 residues of Tat coupled to the C-terminal 9 amino acids of TRPM7 ([…]; SEQ ID NO:258) is synthesized and purified by HPLC.
• Nunc MaxiSorp 96 well Immuno-plate, Nunc • PBS pH 7.4 (phosphate buffered saline, 8 g NaCl, 0.29 g KCl, 1.44 g Na2HPO4, 0.24 g KH2PO4, add H2O to 1 liter and pH 7.4; 0.2 μm filter) • Assay Buffer: 2% BSA in PBS (20 g of bovine serum albumin per liter PBS, fraction V, ICN Biomedicals, cat#IC15142983 • Goat anti-GST polyclonal Ab, stock 5 mg/ml, stored at 4° C., Amersham Pharmacia cat#27-4577-01 • Dilute 1:1000 in PBS, final concentration 5 μg/ml. • HRP-Streptavidin, 2.5 mg/2 ml stock stored at 4° C., Zymed cat#43-4323, dilute 1:2000 into Assay buffer, final concentration of […] • Wash Buffer, PBS • Biotinylated peptides (HPLC purified, stock solution stored in −20° C. freezer) • GST-PRISM proteins (stock stored at −80° C., after 1st thaw store in −10° C. freezer) • TMB (3,3′,5,5′, teramethylbensidine), tablets, Sigma cat.#T5525 • Per plate, dissolve 1 tablet in 1 ml DMSO, add 9 ml Citrate/Phosphate buffer pH 5.4 and 2 μL H2O2 • 0.1 M H2SO4, Sigma cat.#S1526 • 12-w multichannel pipettor & tips • 50 ml reagent reservoirs, Costar#4870 • 50, 15 ml polypropylene conical tubes • Costar Transtar 96 Costar #7605 • Transtar 96 Cartridge Costar #7610 • Molecular Devices microplate reader (450 & 650 nm filters) with SoftMax Pro software *When using reagents stored at or 4° C. or −20° C., remove & keep on ice
• 1. Coat plate with 100 μl of 5 μg/ml anti-GST, overnight at 4° C. • 2. Dump contents of plate & out tap dry on paper towels • 3. Block with 200 μl Assay Buffer for 2 hrs at room temperature • 4. Prepare proteins at 5 μg/ml in Assay Buffer • 5. Wash 3× with cold PBS (4° C.), avoiding letting the plates dry out • 6. Add proteins at 50 μl per well, incubate 1 to 2 hrs at 4° C. • 7. Prepare peptides to desired concentration in Assay Buffer • 8. Wash 3× with cold PBS (4° C.), avoiding letting the plates dry out • 9. Add HRP-Streptavidin/peptide complex [prepared by incubating for 20 minutes at room temperature HRP-Streptavidin (1:2000) with the desired biotin-peptide concentration for 20 minutes at room temperature] at 50 μl per well on ice • 10. Place at room temperature for exactly 30 minutes • 11. Promptly wash 5× with PBS at room temperature • 12. Add 100 μl/well TMB substrate (write time on plate) • 13. Incubate in dark at room temperature for a maximum of 30 minutes • 14. Read plate at 25 minutes (650 nm), optional • 15. Stop reaction with 100 μl of 0.18 M H2SO4, 30 minutes after adding TMB • Take last reading at 450 nm soon after stopping reaction
The G3 assay was performed using 0.1 μM peptide representing 11 amino acids of Tat fused to the final 9 amino acids of TRPM7 ([…]; SEQ ID NO:258). […]

ZO-1 d2 [2] = molecular target: T1, ZO-1 d2; assay: G assay, peptide binding to GST-PDZ fusion (Table 11); settings: Table 11, titrations or binding assays
Procedure: (§1) The binding of labeled PL peptide (e.g., as listed in TABLE 2 and TABLE 4) to this surface is then measured. In a preferred embodiment, the assay is carried out as follows:
(§2) (1) A PDZ-domain polypeptide is bound to a surface, e.g. a protein binding surface. In a preferred embodiment, a GST/PDZ fusion protein containing one or more PDZ domains is bound to a polystyrene 96-well plate. […] In one embodiment, the GST/PDZ fusion protein is bound via an anti-GST antibody that is coated onto the 96-well plate. Adequate binding to the plate can be achieved when:
(§3) (2) Biotinylated PL peptides are allowed to react with the surface by addition of 50 μl per well of 20 μM solution of the biotinylated peptide in PBS/BSA for 10 minutes at 4° C., followed by an additional 20 minute incubation at 25° C. The plate is washed 3 times with ice cold PBS.
(§4) (3) The binding of the biotinylated peptide to the GST/PDZ fusion protein surface can be detected using a variety of methods and detectors known to one of skill in the art. In one embodiment, 100 μl per well of 0.5 μg/ml streptavidin-horseradish peroxidase (HRP) conjugate dissolved in BSA/PBS is added and allowed to react for 20 minutes at 4° C. The plate is then washed 5 times with 50 mM Tris pH 8.0 containing 0.2% Tween 20, and developed by addition of 100 μl per well of HRP-substrate solution (TMB, Dako) for 20 minutes at room temperature (RT). The reaction of the HRP and its substrate is terminated by addition of 100 μl per well of 1 M sulfuric acid, and the optical density (O.D.) of each well of the plate is read at 450 um.
(§5) (4) Specific binding of a PL peptide and a PDZ domain polypeptide is determined by comparing the signal from the well(s) in which the PL peptide and PDZ domain polypeptide are combined, with the background signal(s). […] Typically a specific or selective reaction will be at least twice background signal, more typically more than 5 times background, and most typically 10 or more times the background signal. […] Correspondingly, a statistical test (e.g. a T-test) comparing repeated measurements of the signal with -repeated measurements of the background will result in a p-value <0.05, more typically a p-value <0.01, and most typically a p-value <0.001 or less. As noted, in an embodiment of the G assay, the signal from binding of a given PL peptide to immobilized (surface bound) GST polypeptide alone is one suitable negative control (sometimes referred to as B1). Because all measurement are done in multiples (i.e. at least duplicate) the arithmetic mean (or, equivalently, average.) of several measurements is used in determining the binding, and the standard error of the mean is used in determining the probable error in the measurement of the binding. The standard error of the mean of N measurements equals the square root of the following: the sum of the squares of the difference between each measurement and the mean, divided by the product of (N) and (N−1). Thus, in one embodiment, specific binding of the PDZ protein to the platebound peptide is determined by comparing the mean signal (“mean S”) and standard error of the signal (“SE”) for a particular PL-PDZ combination with the mean B1.

INADL d3 = molecular target: T2, INADL d3 (Homo sapiens, UniProt Q8NI35); assay: as above; settings: Table 11, titrations or binding assays
T2 construct: made in house; host or cells: E. coli (DH5alpha, BL21 or JM109)
T2 sequence (Q8NI35 with tags, fused parts or gaps): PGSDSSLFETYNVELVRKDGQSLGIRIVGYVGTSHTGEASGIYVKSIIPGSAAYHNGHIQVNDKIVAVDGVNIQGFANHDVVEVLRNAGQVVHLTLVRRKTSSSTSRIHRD
Procedure: as §1, §2, §3, §4, §5

| Molecule | EC50 (ZO-1 d2 [1]) [nM] | PDZ domain bound (ZO-1 d2 [2]) | PDZ domain bound (INADL d3) |
| --- | --- | --- | --- |
| CC[C@H](C)[C@H](NC(=O)[C@H](CO)NC(=O)[C@@H](NC(=O)[C@H](C)NC(=O)[C@H](C)NC(=O)[C@@H](NC(=O)[C@H](C)NC(=O)[C@H](CCCNC(=N)N)NC(=O)[C@H](CCCNC(=N)N)NC(=O)[C@H](CCCNC(=N)N)NC(=O)[C@H](CCC(N)=O)NC(=O)[C@H](CCCNC(=N)N)NC(=O)[C@H](CCCNC(=N)N)NC(=O)[C@H](CCCCN)NC(=O)[C@H](CCCCN)NC(=O)[C@H](CCCNC(=N)N)NC(=O)CNC(=O)[C@H](Cc1ccc(O)cc1)NC(=O)CCCC[C@@H]1SC[C@@H]2NC(=O)N[C@@H]21)C(C)C)[C@@H](C)O)C(=O)N[C@@H](CC(N)=O)C(=O)N[C@@H](CC(C)C)C(=O)O [Peptide 1791] (Biotin-YGRKKRRQRRRAVAATSINL-OH) | < 100 | – | – |
| CC[C@H](C)[C@H](NC(=O)[C@H](CCCCN)NC(=O)[C@H](CCCNC(=N)N)NC(=O)[C@H](CC(=O)O)NC(=O)CNC(=O)[C@H](CCCNC(=N)N)NC(=O)[C@H](C)NC(=O)[C@H](CCCNC(=N)N)NC(=O)[C@H](CCCNC(=N)N)NC(=O)[C@H](CCCNC(=N)N)NC(=O)[C@H](CCC(N)=O)NC(=O)[C@H](CCCNC(=N)N)NC(=O)[C@H](CCCNC(=N)N)NC(=O)[C@H](CCCCN)NC(=O)[C@H](CCCCN)NC(=O)[C@H](CCCNC(=N)N)NC(=O)CNC(=O)[C@H](Cc1ccc(O)cc1)NC(=O)CCCC[C@@H]1SC[C@@H]2NC(=O)N[C@@H]21)C(=O)N[C@@H](CCCNC(=N)N)C(=O)N[C@H](C(=O)O)C(C)C [Peptide 1836] (Biotin-YGRKKRRQRRRARGDRKIRV-OH) | < 10 | – | – |
| DFRPSFKHILFRRARRGFRQ | – | ZO-1 D2 | INADL D3 |
| ELLQFCRTPNPALKNGQYWV | – | ZO-1 D2 | INADL D3 |
| ENLELPVNPSSVVSERISSV (Biotin-ENLELPVNPSSVVSERISSV) | – | – | INADL D3 |
| FHSKTAGANTTDKELEVLSL | – | ZO-1 D2 | INADL D3 |
| GRWTGRAMSAWKPTRRETEV (Biotin-GRWTGRAMSAWKPTRRETEV) | – | – | INADL D3 |
| HAMNAAPRAMENAPALRTSH (Biotin-HAMNAAPRAMENAPALRTSH) | – | – | INADL D3 |
| HDFRRAFKKILARGDRKRIV | – | ZO-1 D2 | INADL D3 |
| HHLVAQRDIRQFQLQHWLAI | – | ZO-1 D2 | INADL D3 |
| HSCCNRARQERLQRRRETQV (Biotin-HSCCNRARQERLQRRRETQV; cysteine pairing not given here) | – | ZO-1 D2 | INADL D3 |
| ILNSIQVMRAQMNQIQSVEV | – | ZO-1 D2 | INADL D3 |
| KHSRKSSSYSSSSTTVKTSY | – | ZO-1 D2 | INADL D3 |
| KKKKQPGNSTKESESTNSVRLML | – | ZO-1 D2 | INADL D3 |
| LASKSAEEGKQIPDSLSTDL | – | – | INADL D3 |
| LAVLAYSITLVMLWSIWQYA | – | ZO-1 D2 | INADL D3 |
| LNSCSNRRVYKKMPSIESDV (Biotin-LNSCSNRRVYKKMPSIESDV) | – | ZO-I D2 | INADL D3 |
| LQFHRGSRAQSFLQTETSVI | – | – | INADL D3 |
| NYKLNTDHAGSNDNIALLVQ (Biotin-NYKLNTDHAGSNDNIALLVQ) | – | ZO-1 D2 | – |
| PGQPPKVKSEFNSYSLTGYV | – | – | INADL D3 |
| PIPAGGCTFSGIFPTLTSPL | – | – | INADL D3 |
| PSSRASSRASSRPRPDDLEI | – | ZO-1 D2 | – |
| QDFRRAFRRILARPWTQTAW | – | ZO-1 D2 | INADL D3 |
| RELVDRGEVRQFTLRHWLKV | – | ZO-I D2 | INADL D3 |
| RRRRRRRGNTTDKELEVLSL | – | ZO-1 D2 | – |
| RRRRRRRGTNPAVAATSANL | – | ZO-1 D2 | – |
| RSGATIPLVGQDIIDLQTEV | – | – | INADL D3 |

| Molecule | EC50 (ZO-1 d2 [1]) [nM] | PDZ domain bound (ZO-1 d2 [2]) | PDZ domain bound (INADL d3) |
| --- | --- | --- | --- |
| SLIGPVQKEYQRELGKLSSP | – | – | INADL D3 |
| SSKSKSSEESQTFFGLYKL | – | ZO-1 D2 | INADL D3 |
| SSSRRDSSWSETSEASYSGL | – | ZO-1 D2 | – |
| STDNLVRPFMDTLASHQLYI | – | – | INADL D3 |
| TEGNESSEATSPVNAIYSLA | – | ZO-1 D2 | – |
| TQGFPGPATWRRISSLESEV | – | – | INADL D3 |
| TTNNNPNSAVNIKKIFTDV (Biotin-TTNNNPNSAVNIKKIFTDV) | – | ZO-1 D2 | INADL D3 |
| VDPNSPAAKKKYVSYNNLVI (Biotin-VDPNSPAAKKKYVSYNNLVI) | – | ZO-1 D2 | INADL D3 |
| VHKVRNKFKAKCSLCRLYII (Biotin-VHKVRNKFKAKCSLCRLYII; cysteine pairing not given here) | – | ZO-1 D2 | INADL D3 |
| VPSDNIDSQGRNASTNDSLL (Biotin-VPSDNIDSQGRNASTNDSLL) | – | – | INADL D3 |
| YGRKKRRQRRRARGDRKRIV (Biotin-YGRKKRRQRRRARGDRKRIV) | – | ZO-1 D2 | – |
| YGRKKRRQRRRARGDRKRWA (Biotin-YGRKKRRQRRRARGDRKRWA) | – | ZO-1 D2 | – |
| YGRKKRRQRRRARGDRKRWL (Biotin-YGRKKRRQRRRARGDRKRWL) | – | ZO-1 D2 | – |
| YGRKKRRQRRRARSDRGIWA (Biotin-YGRKKRRQRRRARSDRGIWA) | – | ZO-1 D2 | – |
| YGRKKRRQRRRAVAAASANL (Biotin-YGRKKRRQRRRAVAAASANL) | – | ZO-1 D2 | – |
| YGRKKRRQRRRAVAATSANL | – | ZO-1 D2 | INADL D3 |
| YGRKKRRQRRRAVAATYSNL (Biotin-YGRKKRRQRRRAVAATYSNL) | – | ZO-1 D2 | – |
| YGRKKRRQRRRDKELEVLSL | – | ZO-1 D2 | – |
| YGRKKRRQRRREYLGLDVPV | – | ZO-1 D2 | INADL D3 |
| YGRKKRRQRRRGASADSTQA | – | ZO-1 D2 | – |
| YGRKKRRQRRRKLSSIESDV (Biotin-YGRKKRRQRRRKLSSIESDV) | – | ZO-1 D2 | – |
| YGRKKRRQRRRNDNIALLVQ | – | ZO-1 D2 | – |
| YGRKKRRQRRRQDEEEGIWA (Biotin-YGRKKRRQRRRQDEEEGIWA) | – | ZO-1 D2 | – |
| YGRKKRRQRRRSEGVPDLLV | – | ZO-1 D2 | – |
| YSATYSELEDPGEMSPPIDL (Biotin-YSATYSELEDPGEMSPPIDL) | – | – | INADL D3 |
| YVYSRVKNLNSSEGVPDLLV (Biotin-YVYSRVKNLNSSEGVPDLLV) | – | ZO-1 D2 | – |

From patent US20080119412A1, “Polypeptides for Modulating Binding of Trp Channel Proteins and Trp- Associated Proteins” (NoNO Inc., priority 2003, published 2008)
